The values that follow come from article PMC4840434, “The interactome of Streptococcus pneumoniae and its bacteriophages show highly specific patterns of interactions among bacteria and their phages” (Scientific Reports, 2016).

Holding throughout (assay): pull-down; LuMPIS: N-terminally MBP-tagged bait pulled down on amylose beads, N-terminally eGFP-luciferase-tagged prey detected by luciferase activity; both expressed in HEK cells, raw protein extracts; quadruplicates; LIR against MBP without ORF
Assay [1] addresses Dp-1 orf58, Holin (LuMPIS construct) (phage Dp-1 of S. pneumoniae).
For assay [2], the target named is Dp-1 orf32, Hypothetical protein (LuMPIS construct) (phage Dp-1 of S. pneumoniae).
Assay [3] has as its target Dp-1 orf44, Rho-like domain lipoprotein (LuMPIS construct) (phage Dp-1 of S. pneumoniae).
Assay [4] concerns the target Dp-1 orf31, Hypothetical protein (LuMPIS construct) (phage Dp-1 of S. pneumoniae).
The target in assay [5] is Dp-1 orf9, No similarity (LuMPIS construct) (phage Dp-1 of S. pneumoniae).
Assay [6] deals with Cp-1 orf10, Connector protein (LuMPIS construct) (phage Cp-1 of S. pneumoniae).

As for “SP_1731, conserved hypothetical protein (LuMPIS construct) (from UniProt A0A0H2UR87 1-252) (natural protein)”, in assay [1], the LIR (luminescence intensity ratio against MBP alone) stood at 3. Consider “SP_1915, hypothetical protein (LuMPIS construct) (from UniProt A0A0H2URK9 1-149) (natural protein)”, for which the LIR (luminescence intensity ratio against MBP alone) in assay [2] turned out to be 5.

“SP_1575, conserved hypothetical protein (LuMPIS construct) (from UniProt A0A0H2UQU9 1-225) (natural protein)”: the LIR (luminescence intensity ratio against MBP alone) in assay [3] is 14. On the same count and under the same terms, the result for “SP_1725, sucrose operon repressor (LuMPIS construct) (natural protein)” reads 3. As for “SP_1153, hypothetical protein (LuMPIS construct) (from UniProt A0A0H2UQ84 1-392) (natural protein)”, the LIR (luminescence intensity ratio against MBP alone) in assay [4] is 6. As for “SP_1669, MutT/nudix family protein (LuMPIS construct) (from UniProt A0A0H2URA0 1-203) (natural protein)”, in assay [2], the LIR (luminescence intensity ratio against MBP alone) came to 10. Take “SP_1751, putative transporter, CorA family (LuMPIS construct) (from UniProt A0A0H2UR86 1-302) (natural protein)”: the LIR (luminescence intensity ratio against MBP alone) in assay [1] is 5. “SP_1395, putative phosphate transport system regulatory protein PhoU (LuMPIS construct) (from UniProt A0A0H2UQU1 1-217) (natural protein)”: the LIR (luminescence intensity ratio against MBP alone) in assay [5] is 23. The same measure, in the same setting: for “SP_1504, TPR domain protein (LuMPIS construct) (from UniProt A0A0H2UQR2 1-403) (natural protein)” the value was 19. As for “SP_1536, conserved hypothetical protein (LuMPIS construct) (from UniProt A0A0H2UQS7 1-249) (natural protein)”, the LIR (luminescence intensity ratio against MBP alone) in assay [3] was determined as 10.

B1: SP_1540, single-strand binding protein Ssb (LuMPIS construct) (natural protein)
chain: MINNVVLVGRMTRDAELRYTPSNVAVATFTLAVNRTFKSQNGEREADFINVVMWRQQAENLANWAKKGSLIGVTGRIQTRSYDNQQGQRVYVTEVVAENFQMLESRSVREGHTGGAYSAPTANYSAPTNSVPDFSRNENPFGATNPLDISDDDLPF
As to B1, the LIR (luminescence intensity ratio against MBP alone) in assay [2] amounted to 3.

B2: SP_0194, conserved hypothetical protein (LuMPIS construct) (natural protein)
chain: MSHDHNHDHEERELITLVDEQGNETLFEILLTIDGKEEFGKNYVLLVPVNAEEDEDGQVEIQAYSFIENEDGTEGELQPIPEDSEDEWNMIEEVFNSFMEE
For the molecule B2, the LIR (luminescence intensity ratio against MBP alone) in assay [2] amounted to 5.

B3: SP_1354, ribosomal protein L7/L12 (LuMPIS construct) (natural protein)
chain: MALNIENIIAEIKEASILELNDLVKAIEEEFGVTAAAPVAVAAADAADAGAAKDSFDVELTSAGDKKVGVIKVVREITGLGLKEAKELVDGAPALVKEGVATAEAEEIKAKLEEAGASVTLK
For B3, the LIR (luminescence intensity ratio against MBP alone) in assay [6] amounted to 12.

B4: SP_1881, glutamate racemase (LuMPIS construct) (natural protein)
chain: MDNRPIGFLDSGVGGLTVVRELMRQLPHEEIVYIGDSARAPYGPRPAEQIREYTWQLVNFLLTKDVKMIVIACNTATAVVWEEIKAQLDIPVLGVILPGASAAIKSSQGGKIGVIGTPMTVQSDIYRQKIHDLDPDLQVESLACPKFAPLVESGALSTSVTKKVVYETLRPLVGKVDSLILGCTHYPLLRPIIQNVMGPKVQLIDSGAECVRDISVLLNYFEINRGRDAGPLHHRFYTTASSQSFAQIGEEWLEKEIHVEHVEL
For B4, in assay [6], the LIR (luminescence intensity ratio against MBP alone) is 6.
